Experimental findings from patent publication US20190184015A1, “IRRADIATION TREATMENT OF NEUROLOGICAL SENSATIONS BY PHOTOABLATION” (European Molecular Biology Laboratory, priority 2016, published 2019) are described below.

In one data set the test system is pain signaling (TrkA). Briefly: Mechanical hypersensitivity after injection of the NGF ligand into the paw. Type of data set: in vivo, mouse. Particulars: injected into the paw of mice.
For the next data set, the target named is TrkC (Homo sapiens, UniProt Q16288). The data set can be described thus: NGF^SNAP binding to Trk expressing cells.
TrkC, sequence (Q16288 32-839, species assumed): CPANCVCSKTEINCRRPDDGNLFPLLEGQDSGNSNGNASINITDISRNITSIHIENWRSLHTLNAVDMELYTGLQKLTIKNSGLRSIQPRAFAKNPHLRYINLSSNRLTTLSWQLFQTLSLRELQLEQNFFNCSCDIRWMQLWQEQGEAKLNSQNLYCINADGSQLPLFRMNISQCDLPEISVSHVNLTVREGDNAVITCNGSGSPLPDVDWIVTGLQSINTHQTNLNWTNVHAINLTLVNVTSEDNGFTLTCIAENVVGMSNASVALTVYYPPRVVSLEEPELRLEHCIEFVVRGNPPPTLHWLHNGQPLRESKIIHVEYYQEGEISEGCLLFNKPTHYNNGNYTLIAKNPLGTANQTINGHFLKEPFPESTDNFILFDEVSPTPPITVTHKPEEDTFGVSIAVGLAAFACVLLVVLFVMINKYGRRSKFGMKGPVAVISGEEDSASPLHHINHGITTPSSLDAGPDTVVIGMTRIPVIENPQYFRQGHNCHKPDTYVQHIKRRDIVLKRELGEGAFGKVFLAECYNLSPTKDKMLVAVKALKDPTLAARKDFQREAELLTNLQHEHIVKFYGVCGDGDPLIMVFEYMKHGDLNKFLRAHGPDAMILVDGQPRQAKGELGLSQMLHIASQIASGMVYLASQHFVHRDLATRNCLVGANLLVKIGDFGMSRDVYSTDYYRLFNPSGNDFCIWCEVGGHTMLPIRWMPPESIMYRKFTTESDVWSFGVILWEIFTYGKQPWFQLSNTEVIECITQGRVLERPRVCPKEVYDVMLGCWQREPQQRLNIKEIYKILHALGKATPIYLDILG
The next data set deals with TrkB (Homo sapiens, UniProt Q16620). Briefly: NGF^SNAP binding to Trk expressing cells.
TrkB, sequence (Q16620 32-822, species assumed): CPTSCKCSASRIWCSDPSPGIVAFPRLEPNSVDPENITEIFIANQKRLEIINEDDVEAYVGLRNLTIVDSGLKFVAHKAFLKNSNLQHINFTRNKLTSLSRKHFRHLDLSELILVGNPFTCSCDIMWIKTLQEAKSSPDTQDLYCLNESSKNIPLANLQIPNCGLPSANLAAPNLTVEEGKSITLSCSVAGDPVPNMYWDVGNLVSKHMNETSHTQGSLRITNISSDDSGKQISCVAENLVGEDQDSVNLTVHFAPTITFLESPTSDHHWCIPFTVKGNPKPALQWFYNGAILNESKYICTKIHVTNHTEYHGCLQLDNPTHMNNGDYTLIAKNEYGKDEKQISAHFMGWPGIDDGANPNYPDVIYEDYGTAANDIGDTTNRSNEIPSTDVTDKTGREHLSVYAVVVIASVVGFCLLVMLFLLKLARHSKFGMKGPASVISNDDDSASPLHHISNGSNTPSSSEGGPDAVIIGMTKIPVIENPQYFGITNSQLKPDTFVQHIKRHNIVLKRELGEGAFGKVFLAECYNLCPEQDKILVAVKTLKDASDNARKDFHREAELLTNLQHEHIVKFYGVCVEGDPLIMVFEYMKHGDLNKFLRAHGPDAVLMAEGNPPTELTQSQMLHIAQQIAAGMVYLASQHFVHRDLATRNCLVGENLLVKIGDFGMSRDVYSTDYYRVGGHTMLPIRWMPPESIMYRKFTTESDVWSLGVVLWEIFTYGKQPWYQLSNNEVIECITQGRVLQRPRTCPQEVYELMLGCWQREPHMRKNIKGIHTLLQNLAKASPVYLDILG
The target of another data set is T1, TrkA/p75 (Homo sapiens, UniProt P04629).
T1 construct: expressed in transfected cells; host or cells: HEK293T
T1 sequence (P04629 33-796, species assumed): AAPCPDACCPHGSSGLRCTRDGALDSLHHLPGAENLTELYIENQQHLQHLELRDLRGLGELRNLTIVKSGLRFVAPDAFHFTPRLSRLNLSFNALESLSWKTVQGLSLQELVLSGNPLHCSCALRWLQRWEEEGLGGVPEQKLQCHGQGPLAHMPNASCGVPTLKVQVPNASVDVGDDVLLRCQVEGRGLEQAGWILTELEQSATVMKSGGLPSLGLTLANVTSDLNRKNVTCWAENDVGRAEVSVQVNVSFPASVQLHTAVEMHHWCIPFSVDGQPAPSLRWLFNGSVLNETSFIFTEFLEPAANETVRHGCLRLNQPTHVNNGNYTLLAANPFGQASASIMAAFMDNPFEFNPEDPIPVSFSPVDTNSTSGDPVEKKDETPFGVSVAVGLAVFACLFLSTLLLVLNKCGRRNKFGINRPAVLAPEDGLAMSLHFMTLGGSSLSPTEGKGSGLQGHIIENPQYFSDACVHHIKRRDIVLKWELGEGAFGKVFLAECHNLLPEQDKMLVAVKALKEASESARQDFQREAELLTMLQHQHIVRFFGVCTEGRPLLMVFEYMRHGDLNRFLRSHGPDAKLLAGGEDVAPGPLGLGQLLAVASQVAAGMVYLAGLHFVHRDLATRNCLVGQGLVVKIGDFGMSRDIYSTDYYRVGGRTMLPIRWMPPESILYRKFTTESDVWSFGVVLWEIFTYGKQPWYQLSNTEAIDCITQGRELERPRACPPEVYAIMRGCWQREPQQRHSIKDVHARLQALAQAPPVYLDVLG
Briefly: BDNF^SNAP labelling of transfected HEK293T cells. Type of data set: binding. Particulars: labelled with SNAP-Surface647. From the text: (§1) In light of the clinical importance of mechanical allodynia in neuropathic pain patients, it was sought to develop a pharmacological strategy to exploit the striking selectivity of TrkB to the peripheral neurons which provoke this pain state. It was reasoned that BDNF, the ligand for TrkB, may give access to these neurons and allow for their manipulation in wildtype, non-transgenic animals. To this end the inventors produced a recombinant BDNF protein with a SNAP-tag fused to its C-terminus that would enable its chemical derivatization. BDNF^SNAP was labelled in vitro with fluorescent SNAP-Surface647 substrate and applied to HEK293T cells expressing neurotrophin receptors.

For another data set, the target named is T2, TrkB/p75 (Homo sapiens, UniProt Q16620).
T2 construct: expressed in transfected cells; host or cells: HEK293T
T2 sequence (Q16620 32-822, species assumed): as the sequence (Q16620 32-822, species assumed) above
The data set can be described thus: BDNF^SNAP labelling of transfected HEK293T cells. It counts as binding. Particulars: labelled with SNAP-Surface647.
Excerpt: as §1

The target of a further data set is T3, TrkC/p75 (Homo sapiens, UniProt Q16288).
T3 construct: expressed in transfected cells; host or cells: HEK293T
T3 sequence (Q16288 32-839, species assumed): as the sequence (Q16288 32-839, species assumed) above
The data set can be described thus: BDNF^SNAP labelling of transfected HEK293T cells. Particulars: labelled with SNAP-Surface647. Type of data set: binding.
Excerpt: as §1

The target in data set [1] is T4, native TrkB receptors in DRG neurons (Mus musculus, UniProt P15209).
T4 construct: whether BDNF^SNAP would recognize native TrkB receptors in DRG neurons; endogenous in cells; host or cells: dissociated dorsal root ganglion neurons from TrkBCreERT2::Rosa26RFP mice
T4 sequence (P15209 32-821): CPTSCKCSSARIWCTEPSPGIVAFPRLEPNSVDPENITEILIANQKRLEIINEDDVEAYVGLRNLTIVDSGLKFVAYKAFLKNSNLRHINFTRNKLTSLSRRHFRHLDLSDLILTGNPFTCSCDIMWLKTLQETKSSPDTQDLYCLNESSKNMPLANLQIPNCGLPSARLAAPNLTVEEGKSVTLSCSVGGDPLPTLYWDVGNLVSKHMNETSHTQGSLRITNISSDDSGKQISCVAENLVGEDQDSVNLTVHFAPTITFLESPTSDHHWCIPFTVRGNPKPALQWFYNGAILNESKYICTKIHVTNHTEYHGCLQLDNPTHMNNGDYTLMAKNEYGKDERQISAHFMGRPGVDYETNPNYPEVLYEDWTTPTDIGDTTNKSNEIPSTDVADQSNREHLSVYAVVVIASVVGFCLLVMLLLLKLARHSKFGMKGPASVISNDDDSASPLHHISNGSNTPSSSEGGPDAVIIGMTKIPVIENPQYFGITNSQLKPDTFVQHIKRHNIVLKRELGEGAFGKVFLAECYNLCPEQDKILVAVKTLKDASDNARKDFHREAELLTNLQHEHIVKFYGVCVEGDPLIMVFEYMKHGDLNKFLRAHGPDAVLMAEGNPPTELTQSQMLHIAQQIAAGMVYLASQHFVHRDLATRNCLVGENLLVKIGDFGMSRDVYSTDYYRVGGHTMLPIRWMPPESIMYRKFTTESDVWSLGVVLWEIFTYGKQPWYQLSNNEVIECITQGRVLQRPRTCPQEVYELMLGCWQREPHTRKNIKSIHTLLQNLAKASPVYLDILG
The data set can be described thus: BDNF^SNAP Qdot 655 labelling of dissociated DRG. It counts as binding. Particulars: conjugated to Qdot 655; dissociated DRG from TrkBCreERT2::Rosa26RFP mice. From the text:
The inventors further tested whether BDNF^SNAP would recognize native TrkB receptors in DRG neurons.

Entries after “also recorded” stand apart in the source; their conditions may differ.

Turning to NGF^SNAP: recombinant NGF^SNAP protein, the “mechanical hypersensitivity provoked by the ligand” value with pain signaling (TrkA) is “strong sensitizing effect; also recorded: induces mechanical hypersensitivity”. In the data set with TrkC, the “binding to TrkC cells” value is “not TrkB or TrkC”. Moreover, the “binding to TrkB cells” value with TrkB is given as “not TrkB or TrkC”.

B1: BDNF^SNAP: recombinant BDNF protein with a SNAP-tag fused to its C-terminus (protein, UniProt P23560 19-247, looked up)
Neurotrophic factor BDNF …: APMKEANIRGQGGLAYPGVRTHGTLESVNGPKAGSRGLTSLADTFEHVIEELLDEDQKVRPNEENNKDADLYTSRVMLSSQVPLEPPLLFLLEEYKNYLDAANMSMRVRRHSDPARRGELSVCDSISEWVTAADKKTAVDMSGGTVTVLEKVPVSKGQLKQYFYETKCNPMGYTKEGCRGIDKRHWNSQCRTTQSYVRALTMDSKKRIGWRFIRIDTSCVCTLTIKRGR
modifications: C-terminal SNAP tag
notes: recombinant BDNF protein with a SNAP-tag fused to its C-terminus
For the molecule B1, in the data set with TrkA/p75, the “binding to HEK293T cells expressing TrkA/p75” value is given as “did not bind”. Moreover, the “binding to HEK293T cells expressing TrkB/p75” value with TrkB/p75 is listed as “remarkable selectivity for its cognate receptor complex TrkB/p75”. The “binding to HEK293T cells expressing TrkC/p75” value in the data set with TrkC/p75 is given as “did not bind”. For the same molecule, the “overlap between BDNF^SNAP and TrkBCreERT2 positive cells” value in data set [1] is on record as over 95%.
